Test results: patent US20150329626A1

Biological target: human VEGFR2 on cells (ECFC, HMVEC-d) (human) (UniProt P35968)
Assay: cell-based or functional assay

Chain of human VEGFR2 on cells (ECFC, HMVEC-d) (human) (P35968 20-1356): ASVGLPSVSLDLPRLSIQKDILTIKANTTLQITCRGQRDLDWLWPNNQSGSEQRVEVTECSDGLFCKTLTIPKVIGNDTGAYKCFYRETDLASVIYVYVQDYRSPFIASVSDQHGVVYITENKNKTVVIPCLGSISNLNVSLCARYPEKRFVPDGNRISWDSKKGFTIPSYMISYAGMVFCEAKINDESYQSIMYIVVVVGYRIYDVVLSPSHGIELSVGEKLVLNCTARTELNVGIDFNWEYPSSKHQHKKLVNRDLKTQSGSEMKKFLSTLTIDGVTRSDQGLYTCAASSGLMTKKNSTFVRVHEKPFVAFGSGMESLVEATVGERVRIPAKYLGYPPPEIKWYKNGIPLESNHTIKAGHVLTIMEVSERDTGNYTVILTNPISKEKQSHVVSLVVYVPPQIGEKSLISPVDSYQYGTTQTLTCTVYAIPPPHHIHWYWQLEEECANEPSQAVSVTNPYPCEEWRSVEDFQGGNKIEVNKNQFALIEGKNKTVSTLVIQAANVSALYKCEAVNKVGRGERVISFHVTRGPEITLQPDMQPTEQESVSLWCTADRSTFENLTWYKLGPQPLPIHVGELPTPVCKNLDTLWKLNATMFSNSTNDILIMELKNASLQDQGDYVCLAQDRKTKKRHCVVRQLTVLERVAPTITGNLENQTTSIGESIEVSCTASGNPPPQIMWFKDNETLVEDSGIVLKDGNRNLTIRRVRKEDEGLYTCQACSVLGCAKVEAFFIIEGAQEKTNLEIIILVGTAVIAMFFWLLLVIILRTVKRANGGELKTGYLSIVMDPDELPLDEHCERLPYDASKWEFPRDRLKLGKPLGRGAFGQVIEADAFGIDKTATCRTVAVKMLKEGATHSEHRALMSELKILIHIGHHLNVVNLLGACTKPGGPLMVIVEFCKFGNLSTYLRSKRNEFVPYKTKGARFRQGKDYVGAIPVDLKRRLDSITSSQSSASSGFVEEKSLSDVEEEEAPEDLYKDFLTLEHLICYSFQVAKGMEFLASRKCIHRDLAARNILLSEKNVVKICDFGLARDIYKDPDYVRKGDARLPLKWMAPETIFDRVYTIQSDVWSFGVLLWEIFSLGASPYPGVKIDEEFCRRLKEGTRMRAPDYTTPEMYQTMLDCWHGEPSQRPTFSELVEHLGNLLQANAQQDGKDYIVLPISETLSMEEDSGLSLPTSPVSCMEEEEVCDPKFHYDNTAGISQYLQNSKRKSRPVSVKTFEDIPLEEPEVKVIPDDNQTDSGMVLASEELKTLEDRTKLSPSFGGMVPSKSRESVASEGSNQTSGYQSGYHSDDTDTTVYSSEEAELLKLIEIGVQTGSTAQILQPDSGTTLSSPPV

- inhibition of human VEGF165-induced proliferation of HMVEC-d (IC50): 0.0314 µM
Substance: IMC-1121B (antibody)
